Results from patent publication US9339535.

Molecular target: PapMV coat protein CPΔN5 (disks) (Papaya mosaic virus) (UniProt P16596)
Experiment: EMSA
Conditions: shift with 500 ng (22 pmol as printed) protein in 10 µl, 165 fmol RNA; cooperative; weak affinity; room temperature 60 min

PapMV 5' non-coding 80 nt RNA probe
binding: 500 ng
